“And” between values parts separate entries of the source, which are not always exact repeats. Identical values can stand only once. Where no end group is shown, it is not given here.
B1: Bacillus subtilis glutamine synthetase (enzyme, B. subtilis)
chain: MAKYTREDIEKLVKEENVKYIRLQFTDILGTIKNVEIPVSQLGKALDNKVMFDGSSIEGFVRIEESDMYLYPDLNTFVIFPWTAEKGKVARFICDIYNPDGTPFEGDPRNNLKRILKEMEDLGFSDFNLGPEPEFFLFKLDEKGEPTLELNDKGGYFDLAPTDLGENCRRDIVLELEEMGFEIEASHHEVAPGQHEIDFKYAGAVRSCDDIQTFKLVVKTIARKHGLHATFMPKPLFGVNGSGMHCNLSLFKNGVNAFFDENADLQLSETAKHFIAGIVKHATSFTAVTNPTVNSYKRLVPGYEAPCYVAWSAQNRSPLIRIPASRGISTRVEVRSVDPAANPYLALSVLLAAGLDGIKNKLEAPAPIDRNIYVMSKEERMENGIVDLPATLAEALEEFKSNEVMVKALGEHLFEHFIEAKEIEWDMFRTQVHPWEREQYMSQY
notes: glutamine synthetase (GS, class GSI-alpha) of B. subtilis; gene bought from Genscript, in pET15b; Dodecamer as apo protein; tetradecamer (14 copies) in the complexes with TnrA, GlnR and the GlnR C-tail peptide; The His-tag was removed only for crystallography; also called Bs GS; source: E. coli C41(DE3), purified (cobalt NTA); copies: 12

Columns and labels:
[1] = molecular target: fluoresceinated Lm GlnR C-tail peptide (L. monocytogenes); test: fluorescence polarisation; FBI-GS against the corresponding fluoresceinated GlnR C-tail; 25 mM Tris pH 7.5, 100 mM NaCl, 5 mM MgCl2, 20 mM glutamine; three technical repeats
[2] = molecular target: Listeria monocytogenes glutamine synthetase (L. monocytogenes); test: cryo-EM structure; GS (0.75-1.0 mg/mL) with 2.5 or 5 mM GlnR C-tail peptide, 30 min at rt; Buffer B (12.5 mM Tris pH 7.5, 20 mM glutamine, 5 mM MgCl2, 150 mM NaCl, 2.5% glycerol, 1 mM BME)
[3] = molecular target: Listeria monocytogenes glutamine synthetase (L. monocytogenes); test: cryo-EM structure; apo GS without peptide, 0.9-1.0 mg/mL, exchanged into Buffer B
[4] = molecular target: fluoresceinated Pp GlnR C-tail peptide (P. polymyxa); test: fluorescence polarisation; FBI-GS against the corresponding fluoresceinated GlnR C-tail; 25 mM Tris pH 7.5, 100 mM NaCl, 5 mM MgCl2, 20 mM glutamine; three technical repeats
[5] = molecular target: Paenibacillus polymyxa glutamine synthetase (P. polymyxa); test: cryo-EM structure; GS (0.75-1.0 mg/mL) with 2.5 or 5 mM GlnR C-tail peptide, 30 min at rt; Buffer B (12.5 mM Tris pH 7.5, 20 mM glutamine, 5 mM MgCl2, 150 mM NaCl, 2.5% glycerol, 1 mM BME)
[6] = molecular target: Paenibacillus polymyxa glutamine synthetase (P. polymyxa); test: cryo-EM structure; apo GS without peptide, 0.9-1.0 mg/mL, exchanged into Buffer B
[7] = molecular target: Sa GlnR(1-87), His-tag removed (crystallography) (S. aureus) (UniProt Q53687); test: crystal structure; GlnR(1-87) with a 21-mer operator DNA (protein:DNA 1:1.5); GlnR dimer on the DNA
[8] = molecular target: Paenibacillus polymyxa glutamine synthetase, His-tag removed (crystallography) (P. polymyxa); test: crystal structure; GS reacted with 5 mM MgCl2, 5 mM ATP and 5 mM Met-Sox (Met-Sox-P-ADP transition state complex); hanging drop, rt
[9] = molecular target: T1, Pp GS (Paenibacillus polymyxa, UniProt A0A0F0G8G2); test: X-ray crystal structure […] Å; format: binding; details: formed in situ from 5 mM ATP and 5 mM Met-Sox with 5 mM MgCl2; with Met-Sox-P
T1 construct: gene glnA2; full-length, synthetic gene in pET15b, N-terminal His-tag (removed by thrombin for crystallography), E. coli C41(DE3)
T1 sequence (A0A0F0G8G2 1-442): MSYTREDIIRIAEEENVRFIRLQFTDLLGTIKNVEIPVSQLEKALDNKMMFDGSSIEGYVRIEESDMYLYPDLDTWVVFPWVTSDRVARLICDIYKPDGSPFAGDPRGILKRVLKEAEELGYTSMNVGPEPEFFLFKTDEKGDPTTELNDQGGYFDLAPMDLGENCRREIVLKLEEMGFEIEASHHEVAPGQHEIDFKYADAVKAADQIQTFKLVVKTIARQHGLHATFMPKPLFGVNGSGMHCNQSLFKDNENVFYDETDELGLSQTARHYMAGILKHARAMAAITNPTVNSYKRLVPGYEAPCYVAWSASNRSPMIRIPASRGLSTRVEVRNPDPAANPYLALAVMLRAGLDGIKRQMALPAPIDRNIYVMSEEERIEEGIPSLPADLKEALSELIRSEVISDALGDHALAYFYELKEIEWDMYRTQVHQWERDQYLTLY

[10] = molecular target: fluoresceinated Sa GlnR C-tail peptide (S. aureus); test: fluorescence polarisation; FBI-GS against the corresponding fluoresceinated GlnR C-tail; 25 mM Tris pH 7.5, 100 mM NaCl, 5 mM MgCl2, 20 mM glutamine; three technical repeats
[11] = molecular target: Staphylococcus aureus glutamine synthetase (S. aureus); test: cryo-EM structure; GS (0.75-1.0 mg/mL) with 2.5 or 5 mM GlnR C-tail peptide, 30 min at rt; Buffer B (12.5 mM Tris pH 7.5, 20 mM glutamine, 5 mM MgCl2, 150 mM NaCl, 2.5% glycerol, 1 mM BME)
[12] = molecular target: Staphylococcus aureus glutamine synthetase (S. aureus); test: cryo-EM structure; apo GS without peptide, 0.9-1.0 mg/mL, exchanged into Buffer B
[13] = molecular target: Staphylococcus aureus glutamine synthetase, His-tag removed (crystallography) (S. aureus); test: crystal structure; GS reacted with 5 mM MgCl2, 5 mM ATP and 5 mM Met-Sox (Met-Sox-P-ADP transition state complex); hanging drop, rt
[14] = molecular target: Listeria monocytogenes glutamine synthetase, His-tag removed (crystallography) (L. monocytogenes); test: as above
[15] = molecular target: the molecule itself; test: negative stain EM; apo Bs GS alone; 25 mM Tris pH 7.5, 200 mM NaCl, 5% glycerol, 1 mM MgCl2; 20-50 μg/mL; 2D class averages
[16] = molecular target: the molecule itself; test: cryo-EM structure; GS (0.75-1.0 mg/mL) with 2.5 or 5 mM GlnR C-tail peptide, 30 min at rt; Buffer B (12.5 mM Tris pH 7.5, 20 mM glutamine, 5 mM MgCl2, 150 mM NaCl, 2.5% glycerol, 1 mM BME)
[17] = molecular target: fluoresceinated Bs GlnR C-tail peptide (B. subtilis); test: fluorescence polarisation; FBI-GS against the corresponding fluoresceinated GlnR C-tail; 25 mM Tris pH 7.5, 100 mM NaCl, 5 mM MgCl2, 20 mM glutamine; three technical repeats
[18] = molecular target: the molecule itself; test: crystal structure; GlnR(1-87) with a 21-mer operator DNA (protein:DNA 1:1.5); GlnR dimer on the DNA
[19] = molecular target: B1; test: cryo-EM structure; GS (0.75-1.0 mg/mL) with 2.5 or 5 mM GlnR C-tail peptide, 30 min at rt; Buffer B (12.5 mM Tris pH 7.5, 20 mM glutamine, 5 mM MgCl2, 150 mM NaCl, 2.5% glycerol, 1 mM BME); details: both partners purified
[20] = molecular target: T2, Sa GlnR(1-87) (S. aureus, UniProt Q53687 1-87); test: FP
T2 chain: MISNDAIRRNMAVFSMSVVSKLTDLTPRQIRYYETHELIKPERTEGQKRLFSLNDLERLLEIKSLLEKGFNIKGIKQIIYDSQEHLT

[21] = molecular target: B1; test: negative stain EM; Bs GS mixed 1:1 with FL TnrA; 25 mM Tris pH 7.5, 200 mM NaCl, 5% glycerol, 1 mM MgCl2, 5 mM glutamine; 2D class averages; details: both partners purified

## Listeria monocytogenes glutamine synthetase (enzyme)
[1]
  Kd: 27.2 µM
[2]
  stoichiometry N: 14
[3]
  stoichiometry N: 12

## Paenibacillus polymyxa glutamine synthetase (enzyme)
[4]
  Kd: 18.7 µM
[5]
  stoichiometry N: 14 and 12
[6]
  stoichiometry N: 12 and 14

## Sa GlnR(1-87), His-tag removed (crystallography) (from UniProt Q53687 1-87) (domain or fragment)
[7]
  stoichiometry N: 2

## Paenibacillus polymyxa glutamine synthetase, His-tag removed (crystallography) (enzyme)
[8]
  stoichiometry N: 12

## Nc1ncnc2c1ncn2[C@@H]1O[C@H](COP(=O)(O)OP(=O)(O)O)[C@@H](O)[C@H]1O [ADP]
[9]
  X-ray crystal structure 1.98 Å: densities for Met-Sox-P and ADP were clearly observed in each enzyme

## Staphylococcus aureus glutamine synthetase (enzyme)
[10]
  Kd: 7.2 µM
[11]
  stoichiometry N: 12
[12]
  stoichiometry N: 12

## Staphylococcus aureus glutamine synthetase, His-tag removed (crystallography) (enzyme)
[13]
  stoichiometry N: 12

## Listeria monocytogenes glutamine synthetase, His-tag removed (crystallography) (enzyme)
[14]
  stoichiometry N: 12

## B1
[15]
  stoichiometry N: 12
[16]
  stoichiometry N: 14
[17]
  Kd: 4.2 µM

B2: Lm GlnR(1-87), His-tag removed (crystallography) (domain or fragment, L. monocytogenes, UniProt L8DSZ4 1-87, looked up)
chain: MSEKEIRRSMPLFPIGPVMKLTDLTARQIRYYEDQGLIHPARNQGNHRLYSLQDIDVLLEIKDYLNDGLNIAGIKKMYQMQQKESKE
notes: GlnR of L. monocytogenes (122 residues), residues 1-87; Dimer on the 21 bp operator DNA, generated by crystallographic symmetry; also called Lm GlnR-DNA complex; source: E. coli C41(DE3), purified (cobalt NTA, thrombin digestion, Ni-NTA); not shown: His-tag, N-terminal, cleaved
[18]
  stoichiometry N: 2

B3: Bs GlnR C-tail peptide (peptide)
peptide: MQAGRFQRGNTFRQGDMSRFFH
notes: C-tail residues of GlnR of B. subtilis; also called Bs GlnR peptide; source: synthetic peptide, bought: Genscript
[19]
  binding result: binds

## fluorescein-KPIGETLPINRGDLSRFIK [fluoresceinated Sa GlnR C-tail peptide]
[20]
  Kd: 56 µM

B4: Bacillus subtilis TnrA, full length (natural protein, B. subtilis, UniProt Q45666 1-110, looked up)
chain: MTTEDHSYKDKKVISIGIVSELTGLSVRQIRYYEERKLIYPQRSSRGTRKYSFADVERLMDIANKREDGVQTAEILKDMRKKEQMLKNDPQVRKKMLEGQLNAHFRYKNR
notes: TnrA transcription regulator (MerR-like) of B. subtilis; Its production is not described here; also called FL TnrA; Bs TnrA
[21]
  binding result: binds

— PMC9249791, “Molecular dissection of the glutamine synthetase-GlnR nitrogen regulatory circuitry in Gram-positive bacteria” (Nature Communications, 2022)
